Measured values reported in patent publication US20220308072A1.

What was measured:
[1] = molecular target: Recombinant, his tagged full length human frataxin protein (Abcam ab95502) (human) (UniProt Q16595); assay: Simoa sandwich; capture Ab-1; no helper beads
[2] = molecular target: Recombinant, his tagged full length human frataxin protein (Abcam ab95502) (human) (UniProt Q16595); assay: Simoa sandwich 2-step; capture Ab-1; 50 pM SβG
[3] = molecular target: Recombinant, his tagged full length human frataxin protein (Abcam ab95502) (human) (UniProt Q16595); assay: Simoa sandwich 3-step; capture Ab-4; frataxin 100 pg/mL
[4] = molecular target: Recombinant, his tagged full length human frataxin protein (Abcam ab95502) (human) (UniProt Q16595); assay: Simoa sandwich 2-step; capture Ab-1; frataxin 100 pg/mL
[5] = molecular target: Recombinant, his tagged full length human frataxin protein (Abcam ab95502) (human) (UniProt Q16595); assay: Simoa sandwich 2-step; capture Ab-1; frataxin 167 pg/mL
[6] = molecular target: Recombinant, his tagged full length human frataxin protein (Abcam ab95502) (human) (UniProt Q16595); assay: Simoa sandwich 3-step; capture Ab-4; frataxin 1000 pg/mL
[7] = molecular target: Recombinant, his tagged full length human frataxin protein (Abcam ab95502) (human) (UniProt Q16595); assay: Simoa sandwich 3-step; capture Ab-5; frataxin 1000 pg/mL
[8] = molecular target: Recombinant, his tagged full length human frataxin protein (Abcam ab95502) (human) (UniProt Q16595); assay: Simoa sandwich 3-step; capture Ab-1; frataxin 1000 pg/mL
[9] = molecular target: Recombinant, his tagged full length human frataxin protein (Abcam ab95502) (human) (UniProt Q16595); assay: Simoa sandwich 2-step; capture Ab-4; frataxin 1000 pg/mL
[10] = molecular target: Recombinant, his tagged full length human frataxin protein (Abcam ab95502) (human) (UniProt Q16595); assay: Simoa sandwich 3-step; capture Ab-4; frataxin 1000 pg/mL; remark: listed apart in the source
[11] = molecular target: Recombinant, his tagged full length human frataxin protein (Abcam ab95502) (human) (UniProt Q16595); assay: Simoa sandwich 2-step; capture Ab-1; frataxin 6.17 pg/mL
[12] = molecular target: Recombinant, his tagged full length human frataxin protein (Abcam ab95502) (human) (UniProt Q16595); assay: Simoa sandwich 2-step; capture Ab-2; frataxin 6.17 pg/mL
[13] = molecular target: Recombinant, his tagged full length human frataxin protein (Abcam ab95502) (human) (UniProt Q16595); assay: Simoa sandwich; capture Ab-1; no helper beads; frataxin 18.5 pg/mL
[14] = molecular target: Recombinant, his tagged full length human frataxin protein (Abcam ab95502) (human) (UniProt Q16595); assay: Simoa sandwich 2-step; capture Ab-1; 150 pM SβG; frataxin 500 pg/mL
[15] = molecular target: Recombinant, his tagged full length human frataxin protein (Abcam ab95502) (human) (UniProt Q16595); assay: Simoa sandwich 2-step; capture Ab-1; 150 pM SβG; frataxin 55.6 pg/mL
[16] = molecular target: Recombinant, his tagged full length human frataxin protein (Abcam ab95502) (human) (UniProt Q16595); assay: Simoa sandwich 2-step; capture Ab-1; 150 pM SβG; frataxin 0.686 pg/mL
[17] = molecular target: Recombinant, his tagged full length human frataxin protein (Abcam ab95502) (human) (UniProt Q16595); assay: Simoa sandwich 2-step (35 min-5 min); capture Ab-1; with helper beads; frataxin 500 pg/mL
[18] = molecular target: Recombinant, his tagged full length human frataxin protein (Abcam ab95502) (human) (UniProt Q16595); assay: Simoa sandwich 2-step (35 min-5 min); capture Ab-1; with helper beads; frataxin 2.06 pg/mL
[19] = molecular target: Recombinant, his tagged full length human frataxin protein (Abcam ab95502) (human) (UniProt Q16595); assay: Simoa sandwich 2-step (35 min-5 min); capture Ab-1; with helper beads; frataxin 0.686 pg/mL
[20] = molecular target: Recombinant, his tagged full length human frataxin protein (Abcam ab95502) (human) (UniProt Q16595); assay: Simoa sandwich 2-step (120 min-5 min); capture Ab-1; Diluent 1 + 5% NCS; frataxin 22.2 pg/mL
[21] = molecular target: Recombinant, his tagged full length human frataxin protein (Abcam ab95502) (human) (UniProt Q16595); assay: Simoa sandwich 2-step (120 min-5 min); capture Ab-1; Diluent 1 + 10% NCS; frataxin 111 pg/mL
[22] = molecular target: Recombinant, his tagged full length human frataxin protein (Abcam ab95502) (human) (UniProt Q16595); assay: Simoa sandwich 2-step (120 min-5 min); capture Ab-1; Diluent 1 + 10% NCS; frataxin 2.47 pg/mL
[23] = molecular target: Recombinant, his tagged full length human frataxin protein (Abcam ab95502) (human) (UniProt Q16595); assay: Simoa sandwich 2-step (120 min-5 min); capture Ab-1; Diluent 1 + 10% NCS; frataxin 66.7 pg/mL
[24] = molecular target: Recombinant, his tagged full length human frataxin protein (Abcam ab95502) (human) (UniProt Q16595); assay: Simoa sandwich 2-step (120 min-5 min); capture Ab-1; Diluent 1 + 10% NCS; frataxin 12.3 pg/mL
[25] = molecular target: Recombinant, his tagged full length human frataxin protein (Abcam ab95502) (human) (UniProt Q16595); assay: Simoa sandwich 2-step (120 min-5 min); capture Ab-1; Diluent 1 + 10% NCS; frataxin 4.12 pg/mL

UniProt Q16595, sequence (Q16595 42-210): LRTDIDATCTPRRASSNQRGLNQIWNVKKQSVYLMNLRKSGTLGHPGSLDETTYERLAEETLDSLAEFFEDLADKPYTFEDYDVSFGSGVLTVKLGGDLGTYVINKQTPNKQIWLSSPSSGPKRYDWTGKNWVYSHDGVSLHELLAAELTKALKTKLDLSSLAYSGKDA

Work on “Ab-3, mouse monoclonal [18A5DB1] to Frataxin (Abcam ab110328) (antibody)” yielded an Estimated LLOQ [1] of 1.16 pg/mL, an LOD [1] of 0.551 pg/mL and an LOD [2] of 0.132 pg/mL. It also gave an Ave AEB [3] of 1.05 AEB, a S/B [3] of 21.9 and an Ave AEB [4] of 7.11 AEB. The S/B [4] was 88.8, the Ave AEB [5] was 15.1 AEB and the S/B [5] was 145. The Ave AEB [6] was 17.2 AEB, the S/B [6] was 359 and the Ave AEB [7] was 22.9 AEB. It also gave a S/B [7] of 120, an Ave AEB [8] of 17.4 AEB and a S/B [8] of 352. For the same substance, the Ave AEB [9] was 23.7 AEB, the S/B [9] was 193 and the Ave AEB [10] was 25.2 AEB. For the same substance, the S/B [10] was 215, the Ave AEB [11] was 0.737 AEB and the S/B [11] was 7.1. The Ave AEB [12] was 0.737 AEB, the S/B [12] was 7.72 and the AEB Rep1 [13] was 0.363 AEB. For the same substance, the AEB Rep2 [13] was 0.362 AEB, the Ave AEB [13] was 0.363 AEB and the S/B [13] was 16. The Ave AEB [14] was 23.7 AEB, the S/B [14] was 527 and the Ave AEB [15] was 3.69 AEB. For the same substance, the S/B [15] was 82.3, the Ave AEB [16] was 0.0717 AEB and the S/B [16] was 1.6. For the same substance, the AEB Rep1 [17] was 22.8 AEB, the AEB Rep2 [17] was 22.7 AEB and the Ave AEB [17] was 22.8 AEB. The S/B [17] was 935, the AEB Rep1 [18] was 0.146 AEB and the AEB Rep2 [18] was 0.143 AEB. The Ave AEB [18] was 0.144 AEB, the S/B [18] was 5.93 and the AEB Rep1 [19] was 0.0586 AEB. It also gave an AEB Rep2 [19] of 0.0638 AEB, an Ave AEB [19] of 0.0612 AEB and a S/B [19] of 2.51. It also gave an Ave AEB [20] of 0.395 AEB, a S/B [20] of 21.9 and an Ave AEB [21] of 0.515 AEB. The S/B [21] was 48, the Ave AEB [22] was 0.0444 AEB and the S/B [22] was 2.44. The Ave AEB [23] was 0.602 AEB, the S/B [23] was 33.1 and the Ave AEB [24] was 0.0631 AEB. It also gave a S/B [24] of 5.87, an Ave AEB [25] of 0.0283 AEB and a S/B [25] of 2.63.
